Paper PMC6683157

Experiments:
[1] = target: T1, Csm2 (wild type);Psy3 (wild type) (Saccharomyces cerevisiae;Saccharomyces cerevisiae) (UniProt P40465+Q12318); assay: fluorescence anisotropy; details: heparin preparation, Anisotropy: 20 mM Tris pH 8.0, 20-25 nM DNA (2.5-5 nM in Fig 4d), EMSA: 25 mM Tris-HCl pH 8.0, 50 mM NaCl
T1 sequence 1: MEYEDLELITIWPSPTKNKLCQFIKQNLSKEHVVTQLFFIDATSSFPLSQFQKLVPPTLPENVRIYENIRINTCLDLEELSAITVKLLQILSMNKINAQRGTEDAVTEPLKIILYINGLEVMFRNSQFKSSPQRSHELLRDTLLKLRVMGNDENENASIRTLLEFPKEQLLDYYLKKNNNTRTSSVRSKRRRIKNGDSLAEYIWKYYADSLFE
T1 sequence 2: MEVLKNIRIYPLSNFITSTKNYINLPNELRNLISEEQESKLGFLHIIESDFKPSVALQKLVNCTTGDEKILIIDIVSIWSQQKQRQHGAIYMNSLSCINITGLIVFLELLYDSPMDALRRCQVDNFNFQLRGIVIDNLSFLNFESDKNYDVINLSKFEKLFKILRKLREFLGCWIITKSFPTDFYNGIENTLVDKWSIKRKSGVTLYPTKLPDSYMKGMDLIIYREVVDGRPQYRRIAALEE

[2] = target: T2, Csm2 (wild type);Psy3 (wild type);Shu1;Shu2 (Saccharomyces cerevisiae;Saccharomyces cerevisiae;Saccharomyces cerevisiae;Saccharomyces cerevisiae) (UniProt P40465+Q12318+P38751+P38957); assay: fluorescence anisotropy; details: 5 nM DNA, quadratic fit; N21 of strand 1 = THF abasic analog (ssDNA at ss/ds junction); Anisotropy: 20 mM Tris pH 8.0, 20-25 nM DNA (2.5-5 nM in Fig 4d), protein titrated from 1 M NaCl stock; EMSA: 25 mM Tris-HCl pH 8.0, 50 mM NaCl, 1 mM DTT …
T2 sequence 1: T1 sequence 1
T2 sequence 2: T1 sequence 2
T2 sequence 3: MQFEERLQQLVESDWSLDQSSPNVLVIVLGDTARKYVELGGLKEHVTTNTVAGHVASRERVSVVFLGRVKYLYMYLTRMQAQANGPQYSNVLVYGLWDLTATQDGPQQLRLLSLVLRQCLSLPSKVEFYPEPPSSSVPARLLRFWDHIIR
T2 sequence 4: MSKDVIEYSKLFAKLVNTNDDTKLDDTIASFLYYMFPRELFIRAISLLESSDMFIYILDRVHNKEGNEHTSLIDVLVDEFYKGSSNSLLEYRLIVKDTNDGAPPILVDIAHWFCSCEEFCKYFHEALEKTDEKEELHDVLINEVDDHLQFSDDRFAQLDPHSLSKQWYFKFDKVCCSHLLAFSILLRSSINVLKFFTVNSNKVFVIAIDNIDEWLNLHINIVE

[3] = N20 of strand 1 = THF abasic analog, protein titrated from 1 M NaCl …, 1 mM DTT, 100 u
[4] = N31 of strand 1 = THF abasic analog, protein titrated from 1 M NaCl …, 1 mM DTT, 100 u

TTTTTTTTTTTTTTTTTTTNCTTGACAAGCTTGCGCACTG / CAGTGCGCAAGCTTGTCAAGTTTTTTTTTTTTTTTTTTTT [AP2 double-flap]
Kd [1, 3]: 127 nM

TTTTTTTTTTTTTTTTTTTTNTTGACAAGCTTGCGCACTG / CAGTGCGCAAGCTTGTCAAGTTTTTTTTTTTTTTTTTTTT [AP3 double-flap]
Kd ([1]; N21 of strand 1 = THF abasic analog, protein titrated from 1 M NaCl …, 1 mM DTT, 100 u): 104 nM

CAGTGCCGAAGCTTGTCAAGTTTTTTTTTTNTTTTTTTTT / TTTTTTTTTTTTTTTTTTTTCTTGACAAGCTTGCGCACTG [AP5 double-flap]
Kd [1, 4]: 142 nM

TTTTTTTTTNTTTTTTTTTTCTTGACAAGCTTGCGCACTG / CAGTGCGCAAGCTTGTCAAGTTTTTTTTTTTTTTTTTTTT [AP1 double-flap]
Kd ([1]; N10 of strand 1 = THF abasic analog (dSpacer), protein titrated from 1 M NaCl stock, 1 mM DTT …): 105 nM

TTTTTTTTTTTTTTTTTTTTCTTGACAAGCNTGCGCACTG / CAGTGCGCAAGCTTGTCAAGTTTTTTTTTTTTTTTTTTTT [AP4 double-flap]
Kd [1, 4]: 131 nM

CAGTGCCGANGCTTGTCAAGTTTTTTTTTTTTTTTTTTTT / TTTTTTTTTTTTTTTTTTTTCTTGACAAGCTTGCGCACTG [AP8 double-flap]
Kd ([1]; N10 of strand 1 = THF abasic analog (in dsDNA), protein titrated from 1 M NaCl stock, 1 mM DTT …): 153 nM

CAGTGCCGAAGCTTGTCAANTTTTTTTTTTTTTTTTTTTT / TTTTTTTTTTTTTTTTTTTTCTTGACAAGCTTGCGCACTG [AP7 double-flap]
Kd [1, 3]: 112 nM

CAGTGCCGAAGCTTGTCAAGNTTTTTTTTTTTTTTTTTTT / TTTTTTTTTTTTTTTTTTTTCTTGACAAGCTTGCGCACTG [AP6 double-flap]
Kd [2]: 72 nM
Kd ([1]; text gives 71, N21 of strand 1 = THF abasic analog (ssDNA at ss/ds junction), protein titrated from 1 M NaCl stock, 1 mM DTT …): 72 nM
